{"source": "patent US20240400693A1", "about": "(Chugai, published 2024)", "key": {"[1]": {"target": "HLA-DQ2.5 on IHW09023 cells loaded with gamma 4a gliadin peptide (human; wheat)", "test": "cell-based or functional assay"}, "[2]": {"target": "HLA-DQ2.5 on IHW09023 cells loaded with gamma 3 gliadin peptide (human; wheat)", "test": "cell-based or functional assay"}, "[3]": {"target": "HLA-DQ2.5 on IHW09023 cells loaded with gamma 2 gliadin peptide (human; wheat)", "test": "cell-based or functional assay"}, "[4]": {"target": "HLA-DQ2.5 on IHW09023 cells loaded with gamma 1 gliadin peptide (human; wheat)", "test": "cell-based or functional assay"}, "[5]": {"target": "HLA-DQ2.5 on IHW09023 cells loaded with 33mer gliadin peptide (human; wheat)", "test": "cell-based or functional assay"}, "[6]": {"target": "HLA-DQ2.5 on IHW09023 cells loaded with BC hordein peptide (human; barley)", "test": "cell-based or functional assay"}, "[7]": {"target": "HLA-DQ2.5 on IHW09023 cells loaded with omega1/2 gliadin peptide (human; wheat)", "test": "cell-based or functional assay"}, "[8]": {"target": "HLA-DQ2.5 on IHW09023 cells loaded with gamma 4d gliadin peptide (human; wheat)", "test": "cell-based or functional assay"}, "[9]": {"target": "T1, HLA-DQ2.5 on Ba/F3 cells (human, UniProt P01909 24-216, limits assumed)", "T1 construct": "whole, on cells; MHC class II without fused peptide; also called Ba/F3-HLA-DQ2.5", "test": "FACS, Ba/F3 cells; %MFI: IC17dK 0, DQN0139bb 100"}, "[10]": {"target": "T2, HLA-DQ7.3 on Ba/F3 cells (human, UniProt P01909 24-216; P01920 33-230, limits assumed)", "T2 construct": "whole, on cells; also called Ba/F3-HLA-DQ7.3", "T2 MHC II alpha": "not shown", "T2 MHC II beta": "not shown", "test": "FACS, Ba/F3 cells; %MFI: IC17dK 0, DQN0139bb 100"}, "[11]": {"target": "T3, HLA-DQ2.2 on Ba/F3 cells (human, UniProt P01909 24-216, limits assumed)", "T3 construct": "whole, on cells; also called Ba/F3-HLA-DQ2.2", "T3 MHC II alpha": "not shown", "T3 MHC II beta": "not shown", "test": "FACS, Ba/F3 cells; %MFI: IC17dK 0, DQN0139bb 100"}, "[12]": {"target": "T4, HLA-DQ7.5 on Ba/F3 cells (human, UniProt P01909 24-216; P01920 33-230, limits assumed)", "T4 construct": "whole, on cells; also called Ba/F3-HLA-DQ7.5", "test": "FACS, Ba/F3 cells; %MFI: IC17dK 0, DQN0139bb 100"}, "[13]": {"target": "T5, HLA-DQ8 on Ba/F3 cells (human, UniProt P01909 24-216; P01920 33-230, limits assumed)", "T5 construct": "whole, on cells; also called Ba/F3-HLA-DQ8", "T5 MHC II alpha": "not shown", "T5 MHC II beta": "not shown", "test": "FACS, Ba/F3 cells; %MFI: IC17dK 0, DQN0139bb 100"}, "[14]": {"target": "T6, HLA-DQ6.3 on Ba/F3 cells (human, UniProt P01920 33-230, limits assumed)", "T6 construct": "whole, on cells; also called Ba/F3-HLA-DQ6.3", "T6 MHC II alpha": "not shown", "T6 MHC II beta": "not shown", "test": "FACS, Ba/F3 cells; raw MFI"}, "[15]": {"target": "T7, HLA-DR on Ba/F3 cells (human, UniProt P01903 26-216; P79483 30-227, limits assumed)", "T7 construct": "whole, on cells; also called Ba/F3-HLA-DR", "T7 MHC II alpha": "not shown", "T7 MHC II beta": "not shown", "test": "FACS, Ba/F3 cells; raw MFI"}, "[16]": {"target": "T8, HLA-DQ5.1 on Ba/F3 cells (human, limits assumed)", "T8 construct": "whole, on cells; also called Ba/F3-HLA-DQ5.1", "T8 MHC II alpha": "not shown", "T8 MHC II beta": "not shown", "test": "FACS, Ba/F3 cells; raw MFI"}, "[17]": {"target": "T9, HLA-DP on Ba/F3 cells (human, UniProt P20036 29-222; P04440 30-225, limits assumed)", "T9 construct": "whole, on cells; also called Ba/F3-HLA-DP", "T9 sequence (P20036 29-222 limits assumed, chain 1 of 4, other chains not shown)": "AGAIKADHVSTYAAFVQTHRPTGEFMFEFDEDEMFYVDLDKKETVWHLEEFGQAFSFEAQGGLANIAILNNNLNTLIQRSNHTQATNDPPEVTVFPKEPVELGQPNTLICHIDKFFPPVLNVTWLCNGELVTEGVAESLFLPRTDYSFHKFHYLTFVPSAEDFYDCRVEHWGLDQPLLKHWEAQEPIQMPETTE", "T9 sequence (P04440 30-225 limits assumed, chain 2 of 4, other chains not shown)": "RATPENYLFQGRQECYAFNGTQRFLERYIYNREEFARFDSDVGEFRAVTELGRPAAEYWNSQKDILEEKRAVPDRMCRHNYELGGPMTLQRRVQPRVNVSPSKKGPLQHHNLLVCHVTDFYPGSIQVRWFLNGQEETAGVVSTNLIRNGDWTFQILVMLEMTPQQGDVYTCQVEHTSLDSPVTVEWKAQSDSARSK", "test": "FACS, Ba/F3 cells; raw MFI"}}, "data": [{"binder": "DQN0344H1013/L0620//DQN0385H1352/L0681-F6 (bispecific antibody) heavy 1: QVQLVESGGGVVQPGRSLRLSCAASGFTFSSAYWMVWVRQAPGQGLEWMGAVYGGSDTTYYAKWTEGRFTISRDTSKNTLYLQMNSLRAEDTAVYYCAREPLNYYYYGELNVWGQGTLVTVSSASTKGPSVFPLAPSSKSTSGGTAALGCLVKDYFPEPVTVSWNSGALTSGVHTFPAVLKSSGLYSLSSVVTVPSSSLGTQTYICNVNHKPSNTKVDKRVEPKSCDKTHTCPPCPAPELRRGPSVFLFPPKPKDTLMISRTPEVTCVVVDVSHEDPEVKFNWYVDGVEVHNAKTKPREEQYNSTYRVVSVLTVLHQDWLNGKEYKCKVSNKALPAPIEKTISKAKGQPREPQVYTLPPSREEMTKNQVSLTCLVKGFYPSDIAVEWESNGQPENNYKTTPPYLDSDGSFFLYSKLTVDKSRWQEGNVFSCSVLHEALHAHYTREELSLSP light 1: DIQMTQSPSSLSASVGDRVTITCQATENIYSGLAWYQQKPGKAPKLLIYYVSTLAYGIPARFSGSGSGTDFTLTISSLEPEDFAVYYCQTYEDVSAVTFGQGTKVEIKRTVAAPSVFIFPPSDEQLKSGTAEVVCLLNNFYPREAKVQWKVDNALQSGNSEESVTEQDSKDSTYSLSSTLTLSKADYEKHKVYACEVTHQGLSSPVTKSFNRGEC heavy 2: QVQLVESGGGVVQPGRSLRLSCAASGFEFSEWYFMSWVRQAPGKGLEWVASIDTGSGSIDYAEWVEGRFTISRDNSKNTLYLQMNSLRAEDTAVYYCARDIGIDYNFWGPGTLVTVSSASTKGPSVFPLAPSSKSTSGGTAALGCLVEDYFPEPVTVSWNSGALTSGVHTFPAVLESSGLYSLSSVVTVPSSSLGTKTYICNVNHKPSNTKVDKRVEPKSCDKTHTCPPCPAPELRRGPSVFLFPPKPKDTLMISRTPEVTCVVVDVSHEDPEVKFNWYVDGVEVHNAKTKPREEQYNSTYRVVSVLTVLHQDWLNGKEYKCKVSNKALPAPIEKTISKAKGQPREPQVYTLPPSRKEMTKNQVSLTCLVKGFYPSDIAVEWESNGQPENNYKTTPPYLDSDGSFFLYSKLTVDKSRWQQGNVFSCSVLHEALHAHYTRKELSLSP light 2: DIQMTQSPSSLSASVGDRVTITCQTTQSISSYLNWYQQKPGQPPKLLIYYASTKAEGIPARFSGSGLGTDFTLTISSLEPEDFAVYYCHYGISKVSFGQGTKVEIKRTVAAPSVFIFPPSDEQLKSGTAKVVCLLNNFYPREAKVQWKVDNALQSGNSKESVTEQDSKDSTYSLSSTLTLSKADYEKHKVYACEVTHQGLSSPVTKSFNRGEC", "values": [{"measurement": "IC50 (ng/mL), γ4a gliadin TCR, 25 µM γ4a gliadin", "setting": "[1]", "result": 1730, "unit": "ng/mL"}, {"measurement": "IC50 (ng/mL), γ3 gliadin TCR, 100 µM γ3 gliadin", "setting": "[2]", "result": 3.15, "unit": "ng/mL"}, {"measurement": "IC50 (ng/mL), γ2 gliadin TCR, 250 nM γ2 gliadin", "setting": "[3]", "result": 279, "unit": "ng/mL"}, {"measurement": "IC50 (ng/mL), γ1 gliadin TCR, 250 nM γ1 gliadin", "setting": "[4]", "result": 1.71, "unit": "ng/mL"}, {"measurement": "IC50 (ng/mL), α1a gliadin TCR, 250 nM 33mer gliadin", "setting": "[5]", "result": 0.26, "unit": "ng/mL"}, {"measurement": "IC50 (ng/mL), α1b gliadin TCR, 250 nM 33mer gliadin", "setting": "[5]", "result": 1.13, "unit": "ng/mL"}, {"measurement": "IC50 (ng/mL), α2 gliadin TCR, 250 nM 33mer gliadin", "setting": "[5]", "result": 0.38, "unit": "ng/mL"}, {"measurement": "IC50 (ng/mL), BC hordein TCR, 250 nM BC hordein", "setting": "[6]", "result": 11.6, "unit": "ng/mL"}, {"measurement": "IC50 (ng/mL), ω1 gliadin TCR, 25 µM ω1/2 gliadin", "setting": "[7]", "result": 1.88, "unit": "ng/mL"}, {"measurement": "IC50 (ng/mL), ω2 gliadin TCR, 250 nM ω1/2 gliadin", "setting": "[7]", "result": 0.27, "unit": "ng/mL"}, {"measurement": "IC50 (ng/mL), γ4d gliadin TCR, 100 µM γ4d gliadin", "setting": "[8]", "result": 3.15, "unit": "ng/mL"}, {"measurement": "binding result", "setting": "[9]", "result": "no binding (tested: 0.05 micro g/mL)"}, {"measurement": "binding result", "setting": "[10]", "result": "no binding (tested: 0.05 micro g/mL)"}, {"measurement": "binding result", "setting": "[11]", "result": "no binding (tested: 0.05 micro g/mL)"}, {"measurement": "binding result", "setting": "[12]", "result": "no binding (tested: 0.05 micro g/mL)"}, {"measurement": "binding result", "setting": "[13]", "result": "no binding (tested: 0.05 micro g/mL)"}, {"measurement": "binding result", "setting": "[14]", "result": "no binding (tested: 0.05 micro g/mL)"}, {"measurement": "binding result", "setting": "[15]", "result": "no binding (tested: 0.05 micro g/mL)"}, {"measurement": "binding result", "setting": "[16]", "result": "no binding (tested: 0.05 micro g/mL)"}, {"measurement": "binding result", "setting": "[17]", "result": "no binding (tested: 0.05 micro g/mL)"}]}]}
